Laboratory results: paper PMC3271085, “Enhancement of Chemokine Function as an Immunomodulatory Strategy Employed by Human Herpesviruses” (PLoS Pathogens, 2012)

B1: human CCL22 (ligand)
chain: GPYGANMEDSVCCRDYVRYRLPLRVVKHFYWTSDSCPRPGVVLLTFRDKEICADPRVPWVKMILNKLSQ
B2: human CXCL13 (ligand)
chain: VLEVYYTSLRCRCVQESSVFIPRRFIDRIQILPRGNGCPRKEIIVWKKNKSIVCVDPQAEWIQRMMEVLRKRSSSTLPVPVFKRKIP
notes: also called hCXCL13; source: commercially available (Protocol S2)
B3: human CXCL9 (ligand)
chain: TPVVRKGRCSCISTNQGTIHLQSLKDLKQFAPSPSCEKIEIIATLKNGVQTCLNPDSADVKELIKKWEKQVSQKKKQKNGKKHQKKKVLKVRKSQRSRQKKTT
notes: also called hCXCL9; source: commercially available (Protocol S2)
B4: human CXCL11 (ligand)
chain: FPMFKRGRCLCIGPGVKAVKVADIEKASIMYPSNNCDKIEVIITLKENKGQRCLNPKSKQARLIIKKVERKNF
notes: also called hCXCL11; source: commercially available (Protocol S2)
B5: human CCL18 (ligand)
chain: AQVGTNKELCCLVYTSWQIPQKFIVDYSETSPQCPKPGVILLTKRGRQICADPNKKWVQKYISDLKLNA
notes: also called hCCL18; source: commercially available (Protocol S2)
B6: human CXCL14 (ligand)
chain: SKCKCSRKGPKIRYSDVKKLEMKPKYPHCEEKMVIITTKSVSRYRGQEHCLHPKLQSTKRFIKWYNAWNEKRRVYEE
notes: also called hCXCL14; source: commercially available (Protocol S2)
B7: human CCL28 (ligand)
chain: SEAILPIASSCCTEVSHHISRRLLERVNMCRIQRADGDCDLAAVILHVKRRRICVSPHNHTVKQWMKVQAAKKNGKGNVCHRKKHHGKRNSNRAHQGKHETYGHKTPY
notes: also called hCCL28; source: commercially available (Protocol S2)

What follows are molecules tested against soluble, secreted form of HSV-2 glycoprotein G (SgG2) (herpes simplex virus type 2) (UniProt P13290) (assay: SPR; Biacore X; SgG1 or SgG2 amine-coupled to CM5 chips (dialysed against acetate buffer pH 5.0 for SgG1, pH 5.5 for SgG2); chemokines injected; screening at 100 nM and kinetic conditions as in ref. 16; Biaevaluation 3.2).
soluble, secreted form of HSV-2 glycoprotein G (SgG2) (herpes simplex virus type 2), sequence (P13290 23-699): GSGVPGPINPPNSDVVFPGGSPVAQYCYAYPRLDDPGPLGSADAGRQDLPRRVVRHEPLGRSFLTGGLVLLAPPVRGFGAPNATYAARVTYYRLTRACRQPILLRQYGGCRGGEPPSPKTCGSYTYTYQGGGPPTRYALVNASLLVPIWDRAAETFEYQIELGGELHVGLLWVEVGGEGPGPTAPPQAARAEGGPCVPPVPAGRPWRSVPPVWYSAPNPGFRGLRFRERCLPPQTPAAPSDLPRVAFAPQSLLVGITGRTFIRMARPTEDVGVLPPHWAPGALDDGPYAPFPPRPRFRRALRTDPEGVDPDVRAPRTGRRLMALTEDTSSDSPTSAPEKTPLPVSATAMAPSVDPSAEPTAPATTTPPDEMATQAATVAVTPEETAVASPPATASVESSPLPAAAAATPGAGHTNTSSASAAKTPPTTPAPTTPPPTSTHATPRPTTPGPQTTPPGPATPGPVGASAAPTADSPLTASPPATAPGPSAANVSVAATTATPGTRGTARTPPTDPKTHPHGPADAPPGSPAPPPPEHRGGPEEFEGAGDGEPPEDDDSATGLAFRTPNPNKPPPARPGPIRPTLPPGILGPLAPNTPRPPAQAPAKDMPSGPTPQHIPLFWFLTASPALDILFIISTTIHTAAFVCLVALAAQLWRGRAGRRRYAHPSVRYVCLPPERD
Molecule “human CCL25 (from UniProt O15444 24-150) (ligand)” has a Kd of 1.6 nM.
“human CCL26 (from UniProt Q9Y258 24-94) (ligand)” was tested, and the Kd was 1.72 nM.
“human CXCL12β (from UniProt P48061 22-93) (ligand)” showed a Kd of 2.2 nM.
For “human CXCL10 (from UniProt P02778 22-98) (ligand)”, the Kd was 5.5 nM.
B1 showed a Kd of 5.22 nM.
Molecule B2 has a Kd of 4.3 nM.
Work on B3 yielded a Kd of 12.3 nM.
With B4 the Kd was 6 nM.
B5 showed a Kd of 28 nM.
With B6 the Kd was 4.3 nM.
B7 was tested, and the Kd was 3.2 nM.
